Data set [1] deals with the molecule itself. Nature of the data set: nonreducing SDS-PAGE; nonreducing SDS-PAGE on 5 to 15% gradient gels; shows disulfide-linked oligomers; DSSO-cross-linked A2M-MA defines the dimer and tetramer bands.
Data set [2] concerns the molecule itself. Nature of the data set: negative stain electron microscopy; A2M at 78 μg/ml on carbon-coated copper grids, 2% w/v uranyl formate; 2D classes and 3D refinement with D2 symmetry imposed, 24 Å map.
Data set [3] deals with the molecule itself. Put plainly: SEC; Sephacryl S-300 HR column in HBS, samples after DSSO cross-linking. For orientation: In gel filtration, larger molecules generally elute earlier.

One may read the stoichiometry N as a count of units in the complex or per binding partner.

B1: Human α2-macroglobulin (A2M), native conformation, plasma-purified (natural protein, UniProt P01023 24-1474, looked up)
chain: SVSGKPQYMVLVPSLLHTETTEKGCVLLSYLNETVTVSASLESVRGNRSLFTDLEAENDVLHCVAFAVPKSSSNEEVMFLTVQVKGPTQEFKKRTTVMVKNEDSLVFVQTDKSIYKPGQTVKFRVVSMDENFHPLNELIPLVYIQDPKGNRIAQWQSFQLEGGLKQFSFPLSSEPFQGSYKVVVQKKSGGRTEHPFTVEEFVLPKFEVQVTVPKIITILEEEMNVSVCGLYTYGKPVPGHVTVSICRKYSDASDCHGEDSQAFCEKFSGQLNSHGCFYQQVKTKVFQLKRKEYEMKLHTEAQIQEEGTVVELTGRQSSEITRTITKLSFVKVDSHFRQGIPFFGQVRLVDGKGVPIPNKVIFIRGNEANYYSNATTDEHGLVQFSINTTNVMGTSLTVRVNYKDRSPCYGYQWVSEEHEEAHHTAYLVFSPSKSFVHLEPMSHELPCGHTQTVQAHYILNGGTLLGLKKLSFYYLIMAKGGIVRTGTHGLLVKQEDMKGHFSISIPVKSDIAPVARLLIYAVLPTGDVIGDSAKYDVENCLANKVDLSFSPSQSLPASHAHLRVTAAPQSVCALRAVDQSVLLMKPDAELSASSVYNLLPEKDLTGFPGPLNDQDNEDCINRHNVYINGITYTPVSSTNEKDMYSFLEDMGLKAFTNSKIRKPKMCPQLQQYEMHGPEGLRVGFYESDVMGRGHARLVHVEEPHTETVRKYFPETWIWDLVVVNSAGVAEVGVTVPDTITEWKAGAFCLSEDAGLGISSTASLRAFQPFFVELTMPYSVIRGEAFTLKATVLNYLPKCIRVSVQLEASPAFLAVPVEKEQAPHCICANGRQTVSWAVTPKSLGNVNFTVSAEALESQELCGTEVPSVPEHGRKDTVIKPLLVEPEGLEKETTFNSLLCPSGGEVSEELSLKLPPNVVEESARASVSVLGDILGSAMQNTQNLLQMPYGCGEQNMVLFAPNIYVLDYLNETQQLTPEIKSKAIGYLNTGYQRQLNYKHYDGSYSTFGERYGRNQGNTWLTAFVLKTFAQARAYIFIDEAHITQALIWLSQRQKDNGCFRSSGSLLNNAIKGGVEDEVTLSAYITIALLEIPLTVTHPVVRNALFCLESAWKTAQEGDHGSHVYTKALLAYAFALAGNQDKRKEVLKSLNEEAVKKDNSVHWERPQKPKAPVGHFYEPQAPSAEVEMTSYVLLAYLTAQPAPTSEDLTSATNIVKWITKQQNAQGGFSSTQDTVVALHALSKYGAATFTRTGKAAQVTIQSSGTFSSKFQVDNNNRLLLQQVSLPELPGEYSMKVTGEGCVYLQTSLKYNILPEKEEFPFALGVQTLPQTCDEPKAHTSFQISLSVSYTGSRSASNMAIVDVKMVSGFIPLKPTVKMLERSNHVSRTEVSSNHVLIYLDKVSNQTLSLFFTVLQDVPVRDLKPAIVKVYDYYETDEFAIAEYNAPCSKDLGNA
modifications: intact thiol ester between the cysteine and glutamine of the CGEQ motif; N-glycans; intersubunit Cys278/Cys431 disulfides in each disulfide-bridged dimer
notes: α2-macroglobulin, human, from plasma; original N-terminus at position 24; Homotetramer of 720 kDa, a dimer of disulfide-bridged dimers; In the cross-linking, SEC and native PAGE rows the protein carried DSSO cross-links; SAXS was also measured on deglycosylated A2M; also called native A2M; plasma A2M; source: purified from plasma from a healthy volunteer, never frozen
For B1, the results for the “stoichiometry N” value in data set [1] and in data set [2] were 2 and 4, respectively.

B2: Recombinant wild-type A2M (natural protein, human, UniProt P01023 24-1474, looked up)
chain: SVSGKPQYMVLVPSLLHTETTEKGCVLLSYLNETVTVSASLESVRGNRSLFTDLEAENDVLHCVAFAVPKSSSNEEVMFLTVQVKGPTQEFKKRTTVMVKNEDSLVFVQTDKSIYKPGQTVKFRVVSMDENFHPLNELIPLVYIQDPKGNRIAQWQSFQLEGGLKQFSFPLSSEPFQGSYKVVVQKKSGGRTEHPFTVEEFVLPKFEVQVTVPKIITILEEEMNVSVCGLYTYGKPVPGHVTVSICRKYSDASDCHGEDSQAFCEKFSGQLNSHGCFYQQVKTKVFQLKRKEYEMKLHTEAQIQEEGTVVELTGRQSSEITRTITKLSFVKVDSHFRQGIPFFGQVRLVDGKGVPIPNKVIFIRGNEANYYSNATTDEHGLVQFSINTTNVMGTSLTVRVNYKDRSPCYGYQWVSEEHEEAHHTAYLVFSPSKSFVHLEPMSHELPCGHTQTVQAHYILNGGTLLGLKKLSFYYLIMAKGGIVRTGTHGLLVKQEDMKGHFSISIPVKSDIAPVARLLIYAVLPTGDVIGDSAKYDVENCLANKVDLSFSPSQSLPASHAHLRVTAAPQSVCALRAVDQSVLLMKPDAELSASSVYNLLPEKDLTGFPGPLNDQDNEDCINRHNVYINGITYTPVSSTNEKDMYSFLEDMGLKAFTNSKIRKPKMCPQLQQYEMHGPEGLRVGFYESDVMGRGHARLVHVEEPHTETVRKYFPETWIWDLVVVNSAGVAEVGVTVPDTITEWKAGAFCLSEDAGLGISSTASLRAFQPFFVELTMPYSVIRGEAFTLKATVLNYLPKCIRVSVQLEASPAFLAVPVEKEQAPHCICANGRQTVSWAVTPKSLGNVNFTVSAEALESQELCGTEVPSVPEHGRKDTVIKPLLVEPEGLEKETTFNSLLCPSGGEVSEELSLKLPPNVVEESARASVSVLGDILGSAMQNTQNLLQMPYGCGEQNMVLFAPNIYVLDYLNETQQLTPEIKSKAIGYLNTGYQRQLNYKHYDGSYSTFGERYGRNQGNTWLTAFVLKTFAQARAYIFIDEAHITQALIWLSQRQKDNGCFRSSGSLLNNAIKGGVEDEVTLSAYITIALLEIPLTVTHPVVRNALFCLESAWKTAQEGDHGSHVYTKALLAYAFALAGNQDKRKEVLKSLNEEAVKKDNSVHWERPQKPKAPVGHFYEPQAPSAEVEMTSYVLLAYLTAQPAPTSEDLTSATNIVKWITKQQNAQGGFSSTQDTVVALHALSKYGAATFTRTGKAAQVTIQSSGTFSSKFQVDNNNRLLLQQVSLPELPGEYSMKVTGEGCVYLQTSLKYNILPEKEEFPFALGVQTLPQTCDEPKAHTSFQISLSVSYTGSRSASNMAIVDVKMVSGFIPLKPTVKMLERSNHVSRTEVSSNHVLIYLDKVSNQTLSLFFTVLQDVPVRDLKPAIVKVYDYYETDEFAIAEYNAPCSKDLGNA
notes: α2-macroglobulin, human, recombinant wild type; source: HEK293 Freestyle cells, transiently transfected, purified from the supernatant by the protocol used for plasma A2M
Take B2: in data set [1], the “stoichiometry N” value was 2.

B3: A2M^LNK/LNK, recombinant A2M with the Thr654Cys and Thr661Cys mutations (natural protein, human, UniProt P01023 24-1474, looked up)
chain: SVSGKPQYMVLVPSLLHTETTEKGCVLLSYLNETVTVSASLESVRGNRSLFTDLEAENDVLHCVAFAVPKSSSNEEVMFLTVQVKGPTQEFKKRTTVMVKNEDSLVFVQTDKSIYKPGQTVKFRVVSMDENFHPLNELIPLVYIQDPKGNRIAQWQSFQLEGGLKQFSFPLSSEPFQGSYKVVVQKKSGGRTEHPFTVEEFVLPKFEVQVTVPKIITILEEEMNVSVCGLYTYGKPVPGHVTVSICRKYSDASDCHGEDSQAFCEKFSGQLNSHGCFYQQVKTKVFQLKRKEYEMKLHTEAQIQEEGTVVELTGRQSSEITRTITKLSFVKVDSHFRQGIPFFGQVRLVDGKGVPIPNKVIFIRGNEANYYSNATTDEHGLVQFSINTTNVMGTSLTVRVNYKDRSPCYGYQWVSEEHEEAHHTAYLVFSPSKSFVHLEPMSHELPCGHTQTVQAHYILNGGTLLGLKKLSFYYLIMAKGGIVRTGTHGLLVKQEDMKGHFSISIPVKSDIAPVARLLIYAVLPTGDVIGDSAKYDVENCLANKVDLSFSPSQSLPASHAHLRVTAAPQSVCALRAVDQSVLLMKPDAELSASSVYNLLPEKDLTGFPGPLNDQDNEDCINRHNVYINGICYTPVSSCNEKDMYSFLEDMGLKAFTNSKIRKPKMCPQLQQYEMHGPEGLRVGFYESDVMGRGHARLVHVEEPHTETVRKYFPETWIWDLVVVNSAGVAEVGVTVPDTITEWKAGAFCLSEDAGLGISSTASLRAFQPFFVELTMPYSVIRGEAFTLKATVLNYLPKCIRVSVQLEASPAFLAVPVEKEQAPHCICANGRQTVSWAVTPKSLGNVNFTVSAEALESQELCGTEVPSVPEHGRKDTVIKPLLVEPEGLEKETTFNSLLCPSGGEVSEELSLKLPPNVVEESARASVSVLGDILGSAMQNTQNLLQMPYGCGEQNMVLFAPNIYVLDYLNETQQLTPEIKSKAIGYLNTGYQRQLNYKHYDGSYSTFGERYGRNQGNTWLTAFVLKTFAQARAYIFIDEAHITQALIWLSQRQKDNGCFRSSGSLLNNAIKGGVEDEVTLSAYITIALLEIPLTVTHPVVRNALFCLESAWKTAQEGDHGSHVYTKALLAYAFALAGNQDKRKEVLKSLNEEAVKKDNSVHWERPQKPKAPVGHFYEPQAPSAEVEMTSYVLLAYLTAQPAPTSEDLTSATNIVKWITKQQNAQGGFSSTQDTVVALHALSKYGAATFTRTGKAAQVTIQSSGTFSSKFQVDNNNRLLLQQVSLPELPGEYSMKVTGEGCVYLQTSLKYNILPEKEEFPFALGVQTLPQTCDEPKAHTSFQISLSVSYTGSRSASNMAIVDVKMVSGFIPLKPTVKMLERSNHVSRTEVSSNHVLIYLDKVSNQTLSLFFTVLQDVPVRDLKPAIVKVYDYYETDEFAIAEYNAPCSKDLGNA
modifications: intersubunit disulfide between Cys654 and Cys661 of opposite subunits
notes: α2-macroglobulin, human, recombinant; two cysteines introduced in the LNK region; The protein is secreted into the culture supernatant; also called A2M^LNK/LNK (T654C T661C); source: HEK293 Freestyle cells, transiently transfected, purified from the supernatant by the protocol used for plasma A2M
With B3, the “stoichiometry N” value in data set [1] was determined as 4.

B4: A2M^3K, recombinant A2M with the Arg704Lys, Arg715Lys and Arg719Lys mutations (natural protein, human, UniProt P01023 24-1474, looked up)
chain: SVSGKPQYMVLVPSLLHTETTEKGCVLLSYLNETVTVSASLESVRGNRSLFTDLEAENDVLHCVAFAVPKSSSNEEVMFLTVQVKGPTQEFKKRTTVMVKNEDSLVFVQTDKSIYKPGQTVKFRVVSMDENFHPLNELIPLVYIQDPKGNRIAQWQSFQLEGGLKQFSFPLSSEPFQGSYKVVVQKKSGGRTEHPFTVEEFVLPKFEVQVTVPKIITILEEEMNVSVCGLYTYGKPVPGHVTVSICRKYSDASDCHGEDSQAFCEKFSGQLNSHGCFYQQVKTKVFQLKRKEYEMKLHTEAQIQEEGTVVELTGRQSSEITRTITKLSFVKVDSHFRQGIPFFGQVRLVDGKGVPIPNKVIFIRGNEANYYSNATTDEHGLVQFSINTTNVMGTSLTVRVNYKDRSPCYGYQWVSEEHEEAHHTAYLVFSPSKSFVHLEPMSHELPCGHTQTVQAHYILNGGTLLGLKKLSFYYLIMAKGGIVRTGTHGLLVKQEDMKGHFSISIPVKSDIAPVARLLIYAVLPTGDVIGDSAKYDVENCLANKVDLSFSPSQSLPASHAHLRVTAAPQSVCALRAVDQSVLLMKPDAELSASSVYNLLPEKDLTGFPGPLNDQDNEDCINRHNVYINGITYTPVSSTNEKDMYSFLEDMGLKAFTNSKIRKPKMCPQLQQYEMHGPEGLKVGFYESDVMGKGHAKLVHVEEPHTETVRKYFPETWIWDLVVVNSAGVAEVGVTVPDTITEWKAGAFCLSEDAGLGISSTASLRAFQPFFVELTMPYSVIRGEAFTLKATVLNYLPKCIRVSVQLEASPAFLAVPVEKEQAPHCICANGRQTVSWAVTPKSLGNVNFTVSAEALESQELCGTEVPSVPEHGRKDTVIKPLLVEPEGLEKETTFNSLLCPSGGEVSEELSLKLPPNVVEESARASVSVLGDILGSAMQNTQNLLQMPYGCGEQNMVLFAPNIYVLDYLNETQQLTPEIKSKAIGYLNTGYQRQLNYKHYDGSYSTFGERYGRNQGNTWLTAFVLKTFAQARAYIFIDEAHITQALIWLSQRQKDNGCFRSSGSLLNNAIKGGVEDEVTLSAYITIALLEIPLTVTHPVVRNALFCLESAWKTAQEGDHGSHVYTKALLAYAFALAGNQDKRKEVLKSLNEEAVKKDNSVHWERPQKPKAPVGHFYEPQAPSAEVEMTSYVLLAYLTAQPAPTSEDLTSATNIVKWITKQQNAQGGFSSTQDTVVALHALSKYGAATFTRTGKAAQVTIQSSGTFSSKFQVDNNNRLLLQQVSLPELPGEYSMKVTGEGCVYLQTSLKYNILPEKEEFPFALGVQTLPQTCDEPKAHTSFQISLSVSYTGSRSASNMAIVDVKMVSGFIPLKPTVKMLERSNHVSRTEVSSNHVLIYLDKVSNQTLSLFFTVLQDVPVRDLKPAIVKVYDYYETDEFAIAEYNAPCSKDLGNA
notes: α2-macroglobulin, human, recombinant; the three bait region arginines replaced with lysines; The protein is secreted into the culture supernatant; also called A2M^3K (R704K R715K R719K); source: HEK293 Freestyle cells, transiently transfected, purified from the supernatant by the protocol used for plasma A2M
On to B4, for which the “stoichiometry N” value in data set [3] came out at 4.
